Laboratory results taken from patent publication US7812117B2, “Vasostatin as marrow protectant” (The United States of America as represented by the …, priority 1998, dated 2010).
Like-named read-outs stand apart in the source and are kept apart here.

Legend:
[1] = test system: athymic BALB/c nu/nu mice
Description: (§1) Groups of 6-8 athymic BALB/c nu/nu mice, 6 weeks of age, were first irradiated with 400 rad, and 24 hr later were inoculated s.c. with 8×10^6 Burkitt lymphoma cells (CA46 cell line). Beginning 24 hr after cell inoculation, one group (n=6) of mice received daily s.c. inoculations of buffer alone (100 μl); a second group (n=6) received daily s.c. inoculations of a fusion protein of maltose binding protein and vasostatin, MBP-vaso, alone (200 μg in 100 μl of buffer); a third group (n=8) received daily s.c. inoculations of buffer alone (100 μl) plus cyclophosphamide once on day 9 post cell inoculation (2.6 mg i.p. in 100 μl of buffer); a fourth group (n=8) received daily s.c. inoculations of vaso (200 μg in 100 μl of buffer) plus cyclophosphamide once on day 9 post cell inoculation (2.6 mg i.p. in 100 μl of buffer); a fifth group received daily s.c. inoculations of buffer alone (100 μl) plus daily i.p. inoculations of cyclophosphamide (260 μg/mouse in 100 μl of buffer); and a sixth group received daily s.c. inoculations of vaso (200 μg/mouse in 100 μl of buffer) plus daily i.p. inoculations of cyclophosphamide (260 μg/mouse in 100 μl of buffer).

[2] = test system: femoral marrow hematopoietic cells
Description: as §1

[3] = test system: Burkitt lymphoma cells (CA46 cell line); assay: Burkitt lymphoma CA46 tumor growth in athymic mice treated with vaso and/or cyclophosphamide; type: in vivo, human; conditions: vaso 200 μg/day s.c., cyclophosphamide 260 μg/mouse/day i.p. for 26 days; for average tumor size: buffer control 5.85; for average tumor weight: buffer control 6.75
Description: as §1

bone marrow cells = test system: bone marrow cells
Description: FIG. 2 is set of bar graphs showing of the effects of vaso on cytoxan-induced bone marrow toxicity evaluated by bone marrow cell counting. Bone marrow cells obtained from the femurs of mice treated with cytoxan alone or with vaso were counted. FIG. 2A is a bar graph of bone marrow cell counts 5 days after the injection of cytoxan (1 or 2 mg/mouse) alone or with vaso (300 μg/mouse/day). FIG. 2B is a bar graph of the bone marrow cell counts on days 3 and 5 after treatment with cytoxan (2 mg/mouse) alone or with vaso ([…]).
C57BL6J mice (7 weeks of age) were first treated for 7 days daily with either buffer (100 μl s.c.) or vaso (300 μg/mouse in 100 μl of buffer s.c.). On day 8, groups of mice (n=6) pretreated with either buffer or vaso were injected with cyclophosphamide (1.0 or 2.0 mg/mouse) and continued on daily inoculations of buffer (100 μl s.c.) or vaso (300 μg/mouse in 100 μl of buffer s.c.). Additional control mice were treated with only buffer or vaso for 5 additional days. On days 3 and 5 after cyclophosphamide injection, ½ of the mice were killed for evaluation of the bone marrow and peripheral blood.

[4] = test system: peripheral blood white cells
Description: Groups of C57BL/6 mice (8 weeks of age) were treated as described in FIG. 14. FIG. 4A is a bar graph of the bone marrow cell count from mice treated for 16 days with either buffer alone (PBS, 100 μl/mouse/day s.c), Vaso (300 μg/mouse/day s.c) alone, Cytoxan (500 μg/mouse/day i.p.) alone, or vaso (300 μg/mouse/day s.c) plus Cytoxan (500 μg/mouse/day i.p.). Bone marrow was harvested on days 9 and 17 and the number of nucleated cells were counted. FIG. 4B is a bar graph of the bone marrow cell count from mice treated with for 11 days with either buffer alone (PBS, 100 μl/mouse/day s.c), Vaso (300 μg/mouse/day s.c) alone, Cytoxan (250 μg/mouse/day i.p.)×11 days plus Cytoxan 2 mg/mouse i.p. on day 11, or Cytoxan (250 μg/mouse/day i.p.)×11 days plus Cytoxan 2 mg/mouse i.p. on day 11 plus Vaso (300 μg/mouse/day s.c, days 1-16). Bone marrow cell counts were obtained on day 17. FIG. 4C is a bar graph of peripheral blood white cells counts (WBC) on day 17 from mice from the same treatment groups described in B.
FIG. 14 is a schematic diagram of different treatment groups used in the studies described herein. • Group 1: Buffer alone (100 μl/mouse/day s.c)×16 days • Group 2: Vaso alone (300 μg/mouse/day s.c)×16 days • Group 3: Cyclophosphamide (500 μg/mouse/day i.p.)×16 days Group 4: Cyclophosphamide (500 μg/mouse/day i.p.)×16 days plus vaso (300 μg/mouse/day s.c)×16 days Group 5: Cyclophosphamide (250 μg/mouse/day i.p.)×11 days plus Cyclophosphamide 2 mg/mouse i.p. on day 11 Group 6: Cyclophosphamide (250 μg/mouse/day i.p.)×11 days plus Cyclophosphamide 2 mg/mouse i.p. on day 11 plus vaso (300 μg/mouse/day s.c) days 1-16.
In addition, rather than treating the mice with vaso prior to toxin exposure as described above, mice were simultaneously inoculated with cyclophosphamide and vaso. Thus, groups of mice (n=6) received either buffer alone (100 μl s.c) daily for 16 days, vaso (300 μg/mouse s.c) alone daily for 16 days, cyclophosphamide (500 μg/mouse i.p.) either alone or together with vaso (300 μg/mouse s.c) for 16 days. Other groups of mice (n=6) were inoculated daily for 11 days with cyclophosphamide (250 μg/mouse i.p.) either alone or together with vaso (300 μg/mouse s.c).

[5] = test system: peripheral blood white cells; remark: listed apart in the source
Description: Groups of mice (C57BL/B6, 6 weeks old, 10 mice/group) were treated for 4 days with either buffer (PBS, 100 μl/mouse/day), native vaso (200 μg/mouse/day s.c) or denatured vaso ([…]). On day 5, some of the animals were treated with cytoxan and the original treatment with buffer, native or denatured vaso was continued. On day 9 (5 days after one half of the mice had received cytoxan), peripheral blood white cell counts were measured.
To examine whether the effects of vaso on the hematopoietic system are attributable to the native protein, the effects of native vaso were compared with the effects of vaso that had been denatured by boiling. Groups of mice (n=10) were treated for 4 days with either buffer (100 μl/mouse s.c); native vaso (200 μg/mouse/day s.c); or denatured vaso (300 μg/mouse/day s.c). On day 5, some of the mice were injected with cyclophosphamide (2 mg/mouse/i.p.) and treatment continued with either buffer, native vaso or denatured vaso. The experiment was terminated on day […], at which time peripheral blood counts were measured.

[6] = same dose and regimen of cyclophosphamide plus vaso

O=P1(N(CCCl)CCCl)NCCCO1 (centres unmarked) [cyclophosphamide, reference compound]
mice alive on day 28 ([1]; cyclophosphamide 260 μg/mouse i.p. daily for 26 days, alone): 8/8
mice alive on day 26 ([1]; cyclophosphamide 2.6 mg i.p. once on day 9 alone (daily buffer s.c.), 400 rad, CA46-inoculated, n=8): 0/8
mice dead on day 13 ([1]; cyclophosphamide 2.6 mg i.p. once on day 9 alone, n=8): 7 out of 8
histological appearance of femoral marrow ([2]; cyclophosphamide only (260 μg/day, 26 days)): hypocellular and virtually depleted of hematopoietic cells
average tumor size [3]: 4.98 cm^2
average tumor weight [3]: 4.69 g
bone marrow cellularity 5 days after cyclophosphamide (bone marrow cells; cyclophosphamide 2 mg/mouse alone, vs control untreated mice): clear reduction in cellularity
marrow cell counts 5 days after cyclophosphamide (bone marrow cells; cyclophosphamide 1.0 or 2.0 mg/mouse, alone): reduced significantly marrow cell counts
peripheral white blood cell counts on day 17 ([4]; cyclophosphamide 250 μg/mouse daily for 11 days then 2 mg/mouse on day 12, alone, vs untreated controls): reduction in white blood cell counts
average percent neutrophils on day 17 ([4]; cyclophosphamide 250 μg/mouse daily for 11 days then 2 mg/mouse on day 12, alone, controls 10-17%): 13.4%
average percent lymphocytes on day 17 ([4]; cyclophosphamide 250 μg/mouse daily for 11 days then 2 mg/mouse on day 12, alone, controls 72-83%): 62%
peripheral blood white cell counts ([5]; cyclophosphamide 2 mg/mouse i.p. with buffer, vs buffer-only controls): markedly reduced

B1: vaso: N-terminal domain of calreticulin (amino acids 1-180, SEQ ID NO:3); given as fusion protein with maltose binding protein, MBP-vaso (protein)
chain: EPAVYFKEQFLDGDGWTSRWIESKHKSDFGKFVLSSGKFYGDEEKDKGLQTSQDARFYALSASFEPFSNKGQTLVVQFTVKHEQNIDCGGGYVKLFPNSLDQTDMHGDSEYNIMFGPDICGPGTKKVHVIFNYKGKNVLINKDIRCKDDEFTHLYTLIVRPDNTYEVKIDNSQVESGSLE
modifications: Vasostatin
mice alive on day 28 ([1]; cyclophosphamide 260 μg/mouse i.p. daily in conjunction with vasostatin 200 μg/mouse s.c. daily): 8/8
gross and microscopic examination of liver, spleen, kidneys, heart, lung, lymph nodes and bone marrow ([1]; surviving mice, high dose cyclophosphamide plus vaso, day 26): No abnormalities were noted
mice alive and well on day 26 ([1]; vaso 200 μg s.c. daily plus cyclophosphamide 2.6 mg i.p. once on day 9, n=8, p<0.0001 vs cyclophosphamide alone): 8/8
mice alive and well on day 28 ([1]; vasostatin alone 200 μg s.c. daily): 6/6
histological appearance of femoral marrow ([2]; cyclophosphamide 260 μg/day plus vasostatin 200 μg/day, 26 days): indistinguishable from a normal control marrow
average tumor size [3]: 4.85 cm^2
average tumor weight [3]: 3.79 g
bone marrow cellularity 5 days after cyclophosphamide (bone marrow cells; cyclophosphamide 2 mg/mouse in conjunction with vasostatin): indistinguishable from that of control mice
nadir in bone marrow counts on day 3 after cyclophosphamide (bone marrow cells; cyclophosphamide 2 mg/mouse with vaso 300 μg/mouse/day): reduced the severity of this nadir
bone marrow cell counts 5 days after cyclophosphamide (bone marrow cells; cyclophosphamide 1.0 or 2.0 mg/mouse together with vaso 300 μg/mouse/day s.c.): the reduction in bone marrow cell counts was minimal
average percent lymphocytes on day 17 [4, 6]: 25%
average percent neutrophils on day 17 [4, 6]: 63%
white blood cells in the circulation on day 17 ([4]; vaso in conjunction with cyclophosphamide 250 μg/mouse daily for 11 days then 2 mg/mouse): significantly greater number of white blood cells
peripheral blood white cell counts after cyclophosphamide (alleviation of toxicity) ([5]; cyclophosphamide 2 mg/mouse i.p. plus native vaso 200 μg/mouse/day s.c. or denatured vaso 300 μg/mouse/day s.c.): minimally different from those of the control mice
